In US8445275B2, “Induction of dendritic cell development with macrophage-colony stimulating factor (M-CSF)” (Bavarian Nordic A/S, priority 2007, dated 2013):

Legend:
[1] = system: M-pDC; test: Activation and cytokine production of sorted M-pDC by TLR ligands; format: cell-based, mouse; conditions: TLR2 ligand 1 μg/ml, 18 hrs
Protocol: Activation of DC subsets and analysis of cytokine production by ELISA—Unsorted M-CSF or FL BM cultures or sorted DCs (0.25−0.5×10^6 cells/ml) were stimulated for 18-24 hrs in complete media with or without an added stimulus. The stimuli used were as follows: 1 μg/ml Pam-3-Cys, 100 μg/ml poly(I:C), 1 μg/ml LPS, 1 μg/ml R837, 1 mM Loxoribine, 0.5 μM CpG2216, 0.5 μM CpG1668. Culture supernatants were assayed for the presence of IFN-α by two-site ELISA as previously described (21). Other cytokines (IL-12 p70, IL-6, TNF-α, MCP-1 and IFN-γ) were measured using the Cytometric Bead Array, Mouse Inflammation Kit (Becton Dickinson). Stimulated DCs were blocked as stated above and stained with antibodies directed to CD8a, CD40, CD69, CD80 and CD86.
The survival of the M-pDC to these stimuli was extremely poor (<5%), data not shown.
Similar to FL-pDCs and ex-vivo pDCs, sorted M-pDC were activated with ligands for TLR7 and 9, as indicated by elevated expression of CD8a, CD69, CD86 and CD40 (FIG. 3B and data not shown). M-pDC only produced detectable cytokines to TLR7 and 9 ligands (FIG. 3C and data not shown). In response to a type A CpG-ODN (CpG2216) M-pDCs produced high levels of IFN-α (FIG. 3C). […] The production of IL-10, IL-12p70, MCP-1 and IFN-γ by the M-pDC was also tested but none of these cytokines were detected.

[2] = system: FL cultures (FL-DC generation, Flt3); test: Inhibitor effect on cell numbers in FL BM cultures (FL-DC generation); format: cell-based, mouse; conditions: range of concentrations
Protocol: FIG. 4 and FIG. 8. The generation of M-DC is inhibited by a c-FMS inhibitor. Replicate M-CSF and FL cultures were conducted in parallel in the presence or absence of a range of A: cFMS Receptor Tyrosine Kinase Inhibitor or B: Flt3 Inhibitor concentrations. At the end of the culture period all cells were counted. The number of cells harvested from cultures without inhibitor was set at 100%. Cells from cultures containing inhibitor were expressed as a percentage of cells obtained in the absence of inhibitor. The data shown in each panel are from one experiment each, representative of 2 experiments carried out for each of the inhibitors.
(§1) M-CSF and FL BM cultures—BM cells were flushed from femurs and tibiae of mice. Red cell lysis buffer (Sigma-Aldrich) was used to deplete red blood cells from the BM cell suspensions. BM cells were then either cultured directly or after depletion. To deplete, BM cells were incubated for 30 min with rat antibodies to CD11c and CD45R (B220) followed by 30 min incubation with goat anti-rat magnetic beads (Qiagen, Hilden, Germany). The depletion procedure routinely removed 65-80% of total BM cells. It should be noted that depletion with the beads only, in the absence of the rat antibodies, also depleted about 50% of the BM cells, presumably via FcR/Ig interactions. […]

[3] = reported in the literature; cited from earlier work
[4] = system: C57BL/6 or FLKO mice; test: In vivo M-CSF treatment, DC numbers in spleen and peritoneal lavage; parameters: species or system mouse
Protocol: In vivo M-CSF treatment—Wild type and FLKO mice were treated ip with 10 μg of M-CSF in 0.01% BSA (100 μl volume), or with vehicle alone, for five consecutive days. At the end of five days mice were sacrificed. The peritoneum was flushed 3 times with Complete media and then organs were collected for DC purification.
Ex vivo DC purification—DCs were purified from spleens of M-CSF or vehicle treated mice essentially as previously described (21), using FACS buffer, RPMI and 1.077A Nycodenz (Progen Biotechnik GmbH, Heidelberg, Germany) that was adjusted to mouse osmolarity (308 mOsm).
Specifically cDC were reduced about 2-fold and pDC about 3-fold. This was substantially less of an effect than that seen in mice lacking FL but nevertheless, lack of M-CSF did result in reduced DC numbers, further substantiating the assumption that M-CSF is a DC poietin. To further validate the studies initiated by MacDonald et al (2005), M-CSF was administered to mice in order to analyze whether M-CSF could actually increase DC numbers in vivo. According to other references in the prior art, a range of exogenous M-CSF concentrations in the range of 10 to 200 μg/day has been administered. The source of M-CSF used has varied widely and consequently, as well as the specific activity. It is thus impossible to gauge an optimal or saturating level of M-CSF to administer. Moreover, it has been reported that M-CSF has an extremely short half-life of only 10 mins in the circulation^28. Due to the prohibitive cost of commercial M-CSF with a determined specific activity a ‘proof of principal’ trial experiment was conducted and 10 μg/day of M-CSF to C57BL/6 or FLKO mice for 5 days were administered. This amount was neither titrated nor was it attempted to extend the application period. […] Said observations indicate that M-CSF indeed was inducing an effect in vivo.

[5] = system: mouse bone marrow (BM) cells; test: IFN-α production of M-CSF BM cultures in response to CpG-2216 (ELISA); format: cell-based
Protocol: as §1, with “interactions. Total BM cells or depleted BM cells were cultured at 1.5×10^6 cells/ml in RPMI-1640 media (Gibco) supplemented with 10% FCS, 50 μM beta-mercaptoethanol, 100 IU/ml penicillin/streptomycin (complete media) and either 20 ng/ml recmuM-CSF or rechu-MCSF or 35 ng/ml recmuFL for 6-8 days at 37° C. in a humidified atmosphere containing 5% CO2.” for “interactions.”
Activation of DC subsets and analysis of cytokine production by ELISA—Unsorted M-CSF or FL BM cultures or sorted DCs (0.25−0.5×10^6 cells/ml) were stimulated for 18-24 hrs in complete media with or without an added stimulus. […] Other cytokines (IL-12 p70, IL-6, TNF-α, MCP-1 and IFN-γ) were measured using the Cytometric Bead Array, Mouse Inflammation Kit (Becton Dickinson). […]

[6] = system: BM cells depleted of B220+ and CD11c+ cells; test: pDC/cDC development in M-CSF BM cultures (CD11c/CD45RA staining); format: cell-based, mouse
Protocol: M-CSF and FL BM cultures—BM cells were flushed from femurs and tibiae of mice. Red cell lysis buffer (Sigma-Aldrich) was used to deplete red blood cells from the BM cell suspensions. BM cells were then either cultured directly or after depletion. To deplete, BM cells were incubated for 30 min with rat antibodies to CD11c and CD45R (B220) followed by 30 min incubation with goat anti-rat magnetic beads (Qiagen, Hilden, Germany). The depletion procedure routinely removed 65-80% of total BM cells. It should be noted that depletion with the beads only, in the absence of the rat antibodies, also depleted about 50% of the BM cells, presumably via FcR/Ig interactions. Total BM cells or depleted BM cells were cultured at 1.5×10^6 cells/ml in RPMI-1640 media (Gibco) supplemented with 10% FCS, 50 μM beta-mercaptoethanol, 100 IU/ml penicillin/streptomycin (complete media) and either 20 ng/ml recmuM-CSF or rechu-MCSF or 35 ng/ml recmuFL for 6-8 days at 37° C. in a humidified atmosphere containing 5% CO2. The M-CSF cultures were fed with fresh M-CSF every 3 days, without media change.
Surface staining of M-CSF or FL BM cultures—Harvested cells were washed in PBS containing 2% FCS and 2 mM EDTA (FACS buffer). FcR binding was then blocked by incubation with 1 mg/ml purified anti CD16/32 monoclonal antibody (clone 2.4G2) for 20 mins on ice. An equal volume of 2× concentrated specific antibody stain was then added to the cell suspension and incubated for a further 20 mins. Cells were washed in FACS buffer and resuspended in FACS buffer containing 1 μg/ml propidium iodide.
Indeed, a population of 10-20% of cells within the cultures expressed high levels of CD45RA and medium levels of CD11c, together with the lack of CD3, CD19 or CD49b or NK1.1 expression, low side scatter and forward scatter this was commensurate with the phenotype of pDCs (FIG. 1B and data not shown).
It was clear that M-CSF could drive pDC development yet the yield of pDCs was substantially less then that obtained with FL. […]

[7] = system: CMP, CLP, GMP from C57BL/6 BM; test: M-CSF cultures of purified progenitors (CMP, CLP, GMP) spiked into UBC-GFP BM cells; format: cell-based, mouse; conditions: M-CSF culture 6 days
Protocol: CMP (Lin^−Sca-1^−ckit^+CD34^+FcR^int), CLP (Lin^−Sca-1^+c-kit^intIL-7R^+Thy-1^−) or granulocyte/macrophage progenitors (GMP, Lin^−Sca-1^−c-kit^+CD34^+FcR^hi) were isolated from C57BL/6 BM as previously described^21 and sorted to greater than 95% purity on a FACS-ARIA instrument. 2500 cells and serial 2-fold dilutions thereof were added to a 1 ml suspension of UBC-GFP BM cells in a 24-well plate. Final UBC-GFP BM cell concentration was 1.0×10^6 cells/ml. M-CSF or FL cultures were carried out in these wells as described above. After 6 days, samples were enumerated, analysed by FACS, and progeny arising from the C57BL/6 progenitors were gated as GFP^neg cells. To analyse M-CSFR (CD115) and Flt3 (CD135) expression on CLP (Lin^−Sca-1^+c-kit^intIL-7R^+Thy-1^−), lineage depleted cells were first stained with Sca-1-FITC and Thy-1-PE antibodies and the Sca-1^+Thy-1^− cells were sorted. These pre-enriched cells (>95% purity when reanalysed) were then stained with CD117-PE-CY7, IL-7R-APC and either CD115-PE or CD135-PE.
The identification of DC subtypes that could be generated in the absence of FL both in vivo and in vitro immediately raises the question of the nature of their precursor cells. It has been considered whether this factor acts on an early lineage progenitor or, since M-CSF is traditionally considered a ‘myeloid’ growth factor, on a later precursor within the myeloid lineage to generate M-DC. CMP, GMP and CLP were purified from mouse BM. Serial dilutions of the purified cell populations were admixed with ‘feeder’ UBC-GFP BM cells and M-CSF cultures were carried out for 6 days.

[8] = 10 μg/day ip for 5 days, C57BL/6 and FLKO mice, vs vehicle

## palmitoyl-3-cysteine-serine-lysine-4 [Pam-3-Cys]
[1]
  surface activation of M-pDC: very minor surface activation

## Flt3 Inhibitor II
[2]
  effect on generation of FL-DC: highly inhibitory

B1: M-CSF: Recombinant murine or human Macrophage-Colony Stimulating Factor obtained from Tebu-Bio / R&D Systems (protein, UniProt P09603 33-554, looked up)
Macrophage colony-stimulating …: EEVSEYCSHMIGSGHLQSLQRLIDSQMETSCQITFEFVDQEQLKDPVCYLKKAFLLVQDIMEDTMRFRDNTPNAIAIVQLQELSLRLKSCFTKDYEEHDKACVRTFYETPLQLLEKVKNVFNETKNLLDKDWNIFSKNCNNSFAECSSQDVVTKPDCNCLYPKAIPSSDPASVSPHQPLAPSMAPVAGLTWEDSEGTEGSSLLPGEQPLHTVDPGSAKQRPPRSTCQSFEPPETPVVKDSTIGGSPQPRPSVGAFNPGMEDILDSAMGTNWVPEEASGEASEIPVPQGTELSPSRPGGGSMQTEPARPSNFLSASSPLPASAKGQQPADVTGTALPRVGPVRPTGQDWNHTPQKTDHPSALLRDPPEPGSPRISSLRPQGLSNPSTLSAQPQLSRSHSSGSVLPLGELEGRRSTRDRRSPAEPEGGPASEGAARPLPRFNSVPLTDTGHERQSEGSFSPQLQESVFHLLVPSVILVLLAVGGLLFYRWRRRSHQEPQRADSPLEQPEGSPLTQDDRQVELPV
[3]
  half-life in the circulation: 10 min
[4]; 10 μg/day for 5 days, a C57BL/6 mouse, data not shown
  increase of cells that resembled DC in the peritoneal lavage: greater than 6 fold
[4]; 10 μg/day for 5 days, data not shown
  F4/80hi cells in peritoneal lavages: huge increase
[4]; 10 μg/day ip for 5 days
  total splenocytes: did not induce an increase
[4]; [8]
  increase in cDC numbers in the spleen: about 2 fold
  increase in pDC numbers in the spleen: about 2 fold
[5]; DC-depleted BM cells cultured with M-CSF for 6 days, non-adherent cells
  CpG-induced IFN-α producing capacity: potent IFN-α producing capacity was detected again
[5]; total BM cells cultured with M-CSF, 0-7 days, adherent and non-adherent cells
  IFN-α production in response to CpG-2216: high levels
[6]; FLKO BM depleted of DC, exogenous M-CSF only
  pDC development in BM cultures from FLKO mice: pDCs developed even in the absence of FL
[6]; non-adherent M-CSF-generated cells, day 6
  population of cells with pDC phenotype (CD45RA high, CD11c medium) within the cultures: 10-20%
[6]; side by side after six days of culture, less efficient than FL
  efficiency of pDC yield compared with FL: approximately 10 fold
[7]; CLP
  output of M-cDC per input progenitor cell: about 5
  output of M-pDC per input progenitor cell: at least 10
[7]; CMP
  output of M-cDC per input progenitor cell: 8-10
[7]; GMP
  M-DC production from progenitors: not capable of M-DC production
